This note sets out measurements from article PMC2954336, “Biophysical characterization of recombinant proteins: A key to higher structural genomics success” (Journal of Structural Biology, 2010).

The test has as its target WDR5 (WD repeat domain 5) (UniProt P61964 1-334). In words: fluorescence polarisation; 36 nM fluorescein-labeled peptide titrated with WDR5 from 30 nM to 30 uM; 100 mM potassium phosphate buffer pH 8, 0.01% Triton X-100; data fitted to a hyperbolic equation. As to conditions: both partners purified. (Polarisation of emitted light reports the rotation of a fluorescent probe.)

Ends that are not written are not given here. fluorescein = fluorescein label on the N-terminus of the peptide (end-label); Me2 = dimethyl on Lys

In turn, fluorescein-ARTK(Me2)QTARKST [11-mer fluorescein-labeled histone H3 peptide dimethylated on lysine 4 (F-H3K4Me2)] returned a Kd of 100 ± 9 nM.

The term Kd denotes the constant that tells how readily two partners part at equilibrium. A low value points to a tighter complex.
